{"source": "paper PMC4319758", "key": {"[1]": {"target": "Sec61 channel with Sec61p S179P/S353C, in reconstituted proteoliposomes (S. cerevisiae | S. cerevisiae (endogenous in the yeast membranes)) (UniProt P32915)"}, "[2]": {"target": "Sec61 channel, wild type (Sec61p, Sbh1p, Sss1p), in reconstituted proteoliposomes (S. cerevisiae | S. cerevisiae (endogenous in the yeast membranes)) (UniProt P32915)"}, "[3]": {"target": "Sec61 channel with Sec61p of sec61-302 (D168G, S179P, F263L, S353C), in reconstituted proteoliposomes (S. cerevisiae | S. cerevisiae (endogenous in the yeast membranes)) (UniProt P32915)"}, "[4]": {"target": "Sec61 channel with Sec61p S353C, in reconstituted proteoliposomes (S. cerevisiae | S. cerevisiae (endogenous in the yeast membranes)) (UniProt P32915)"}, "[5]": {"target": "Sec61 channel with Sec61p S179P, in reconstituted proteoliposomes (S. cerevisiae | S. cerevisiae (endogenous in the yeast membranes)) (UniProt P32915)"}, "[6]": {"target": "Sec61 channel, wild type (Sec61p, Sbh1p, Sss1p), in reconstituted proteoliposomes (S. cerevisiae | S. cerevisiae (endogenous in the yeast membranes)) (UniProt P32915)", "assay": "flotation of proteoliposomes in a sucrose gradient; 20 eq of reconstituted proteoliposomes with 2 pmol 19S RP in 30 µl binding buffer (20 mM Hepes-KOH pH 7.2, 250 mM sucrose, 120 mM KOAc, 5 mM Mg(OAc)2, 5 mM ATP, 1 mM DTT), 20 min on ice then 10 min at RT; flotation 55,000 rpm, 4°C, 1 hr; 9 fractions, 19S RP detected by anti-FLAG blot"}, "[7]": {"target": "Sec61 channel with Sec61p of sec61-302 (D168G, S179P, F263L, S353C), in reconstituted proteoliposomes (S. cerevisiae | S. cerevisiae (endogenous in the yeast membranes)) (UniProt P32915)", "assay": "flotation of proteoliposomes in a sucrose gradient; 20 eq of reconstituted proteoliposomes with 2 pmol 19S RP in 30 µl binding buffer (20 mM Hepes-KOH pH 7.2, 250 mM sucrose, 120 mM KOAc, 5 mM Mg(OAc)2, 5 mM ATP, 1 mM DTT), 20 min on ice then 10 min at RT; flotation 55,000 rpm, 4°C, 1 hr; 9 fractions, 19S RP detected by anti-FLAG blot"}}, "data": [{"substance": "proteasome 19S regulatory particle (RP), FLAG-tagged on Rpt1 (from UniProt P33299 1-467) (complex)", "values": [{"measurement": "t1/2 of Δgpαf export and degradation from microsomes in the cell-free ERAD assay with 1 mg/ml cytosol (limiting 19S RP)", "setting": "[1]", "value": 45, "unit": "min"}, {"measurement": "t1/2 of Δgpαf export and degradation from microsomes in the cell-free ERAD assay with 1 mg/ml cytosol (limiting 19S RP)", "setting": "[2]", "value": 20, "unit": "min"}, {"measurement": "t1/2 of Δgpαf export and degradation from microsomes in the cell-free ERAD assay with 1 mg/ml cytosol (limiting 19S RP)", "setting": "[3]", "value": 45, "unit": "min"}, {"measurement": "t1/2 of Δgpαf export and degradation from microsomes in the cell-free ERAD assay with 1 mg/ml cytosol (limiting 19S RP)", "setting": "[4]", "value": 45, "unit": "min"}, {"measurement": "t1/2 of Δgpαf export and degradation from microsomes in the cell-free ERAD assay with 1 mg/ml cytosol (limiting 19S RP); wildtype kinetics", "setting": "[5]", "value": 20, "unit": "min"}, {"measurement": "percent of 19S RP bound", "setting": "[6]", "value": 40, "unit": "%"}, {"measurement": "percent of 19S RP bound", "setting": "[7]", "value": 20, "unit": "%"}]}]}
